Laboratory results taken from paper PMC9856709 (Cancers, 2023).
Numbered stars: 1 amine (or outer) side, 2 acyl side, 3 side chain; on linkers, the order of the positions; unused ones are H or OH. Square brackets hold non-standard residues; d marks the D form. Peptide text beside a SMILES is read from it. * marks the point of attachment. NOTA = O=C(O)CN1CCN(CC(=O)O)CCN(CC(=O)*)CC1; γGlu = O=C(O)[C@H](CCC(=O)[*:2])N[*:1]; Sta = CC(C)C[C@H](N)[C@@H](O)CC(=O)O; AEEA = NCCOCCOCC(=O)O; Aoc = NCCCCCCCC(=O)O; CO = O=C([*:1])[*:2]

Experiments:
PSMA and GRPR = test: In vivo binding specificity (blocked groups) in PC3-pip xenografted mice; design: species or system BALB/c nu/nu mice; conditions: 1 h pi
Procedure: (§1) Ex vivo experiments and in vivo imaging were carried out using BALB/c nu/nu mice bearing PC3-pip xenografts. All studies were performed according to the guidelines of the Declaration of Helsinki and approved by the Ethics Committee for Animal Research in Uppsala, Sweden (5.8.18-00473/2021. Approved on 26 February 2021).
(§2) There were 4 mice in each group. At 1 and 3 h pi, mice were sacrificed after an intraperitoneal injection of a Ketalar–Rompun solution (20 μL/g body weight) consisting of Ketalar (10 mg/mL) and Rompun (1 mg/mL), followed by heart puncture.

[1] = as above; design: species or system BALB/c nu/nu mice; conditions: BALB/c nu/nu, mouse, iv, total radioactivity, 1 h pi, 40 pmol iv, average ± SD
Procedure: as §1, §2

in vivo = conditions: BALB/c nu/nu, mouse, iv, 40 pmol, total radioactivity
Procedure: as §1, §2

**Q.** Which “Uptake in tumour and pancreas, GRPR-blocked group compared with non-blocked group” value (PSMA and GRPR; co-injected NOTA-PEG2-RM26 5 nmol) does the source give for CC(C)C[C@H](NC(=O)C[C@H](O)[C@H](CC(C)C)NC(=O)[C@H](Cc1c[nH]cn1)NC(=O)CNC(=O)[C@@H](NC(=O)[C@H](C)NC(=O)[C@H](Cc1c[nH]c2ccccc12)NC(=O)[C@H](CCC(N)=O)NC(=O)[C@@H](Cc1ccccc1)NC(=O)COCCOCCNC(=O)[C@H](CCCCNC(=O)CN1CCN(CC(=O)O)CCN(CC(=O)O)CC1)NC(=O)[C@H](Cc1ccccc1)NC(=O)CCCCCCCNC(=O)CC[C@H](NC(=O)N[C@@H](CCC(=O)O)C(=O)O)C(=O)O)C(C)C)C(N)=O [[^68Ga]Ga-BQ7812, metal not drawn] ({Glu-CO-γGlu-Aoc}-FK(NOTA)[AEEA][dF]QWAVGH[Sta]L-NH2) here?
**A.** statistically significantly lower

**Q.** And the “Uptake in tumour and kidneys, PSMA-blocked group compared with non-blocked group” value (PSMA and GRPR; co-injected PSMA-11 5 nmol)?
**A.** statistically significantly lower

**Q.** And the tissue uptake at 1 h ([1]; blood, GRPR blocked (co-injected NOTA-PEG2-RM26 5 nmol), read-out: Uptake (%IA/g), Blood)?
**A.** 0.69 ± 0.28 %ID/g

**Q.** What about the tissue uptake at 1 h ([1]; blood, PSMA blocked (co-injected PSMA-11 5 nmol), read-out: Uptake (%IA/g), Blood) of the same compound?
**A.** 0.8 ± 0.24 %ID/g

**Q.** What about the tissue uptake at 1 h ([1]; kidneys, GRPR blocked (co-injected NOTA-PEG2-RM26 5 nmol), read-out: Uptake (%IA/g), Kidneys) of the same compound?
**A.** 34.5 ± 8.74 %ID/g

**Q.** What about the tissue uptake at 1 h ([1]; kidneys, PSMA blocked (co-injected PSMA-11 5 nmol), read-out: Uptake (%IA/g), Kidneys) of the same compound?
**A.** 13.8 ± 0.45 %ID/g

**Q.** And the tissue uptake at 1 h ([1]; pancreas, GRPR blocked (co-injected NOTA-PEG2-RM26 5 nmol), read-out: Uptake (%IA/g), Pancreas)?
**A.** 0.76 ± 0.14 %ID/g

**Q.** What about the tissue uptake at 1 h ([1]; pancreas, PSMA blocked (co-injected PSMA-11 5 nmol), read-out: Uptake (%IA/g), Pancreas) of the same compound?
**A.** 6.33 ± 1.86 %ID/g

**Q.** And the tissue uptake at 1 h ([1]; salivary glands, GRPR blocked (co-injected NOTA-PEG2-RM26 5 nmol), read-out: Uptake (%IA/g), Salivary Glands)?
**A.** 0.29 ± 0.07 %ID/g

**Q.** And the tissue uptake at 1 h ([1]; salivary glands, PSMA blocked (co-injected PSMA-11 5 nmol), read-out: Uptake (%IA/g), Salivary Glands)?
**A.** 0.38 ± 0.12 %ID/g

**Q.** What about the tissue uptake at 1 h ([1]; tumour (PC3-pip xenograft), GRPR blocked (co-injected NOTA-PEG2-RM26 5 nmol), read-out: Uptake (%IA/g), Tumour (PC3-pip)) of the same compound?
**A.** 5.73 ± 0.72 %ID/g

**Q.** And the tissue uptake at 1 h ([1]; tumour (PC3-pip xenograft), PSMA blocked (co-injected PSMA-11 5 nmol), read-out: Uptake (%IA/g), Tumour (PC3-pip))?
**A.** 8.26 ± 1.03 %ID/g

**Q.** What about the tissue uptake at 1 h (in vivo; blood) of the same compound?
**A.** 0.86 ± 0.16 %ID/g

**Q.** What about the tissue uptake at 3 h (in vivo; blood) of the same compound?
**A.** 0.16 ± 0.02 %ID/g

**Q.** And the tissue uptake at 1 h (in vivo; bone)?
**A.** 0.31 ± 0.06 %ID/g

**Q.** What about the tissue uptake at 3 h (in vivo; bone) of the same compound?
**A.** 0.13 ± 0.03 %ID/g

**Q.** What about the tissue uptake at 1 h (in vivo; kidneys) of the same compound?
**A.** 45.3 ± 16.6 %ID/g

**Q.** And the tissue uptake at 1 h (in vivo; liver)?
**A.** 0.89 ± 0.1 %ID/g

**Q.** What about the tissue uptake at 3 h (in vivo; liver) of the same compound?
**A.** 0.57 ± 0.03 %ID/g

**Q.** And the tissue uptake at 1 h (in vivo; lungs)?
**A.** 0.86 ± 0.15 %ID/g

**Q.** And the tissue uptake at 3 h (in vivo; lungs)?
**A.** 0.2 ± 0.05 %ID/g

**Q.** And the tissue uptake at 1 h (in vivo; muscle)?
**A.** 0.21 ± 0.04 %ID/g

**Q.** What about the tissue uptake at 3 h (in vivo; muscle) of the same compound?
**A.** 0.05 ± 0.01 %ID/g

**Q.** What about the tissue uptake at 1 h (in vivo; pancreas) of the same compound?
**A.** 5.6 ± 0.7 %ID/g

**Q.** What about the tissue uptake at 3 h (in vivo; pancreas) of the same compound?
**A.** 0.6 ± 0.16 %ID/g

**Q.** What about the tissue uptake at 1 h (in vivo; remaining organs (other than tumour, kidneys, pancreas)) of the same compound?
**A.** ≤ 1 %ID/g

**Q.** What about the tissue uptake at 1 h (in vivo; salivary glands) of the same compound?
**A.** 0.44 ± 0.07 %ID/g

**Q.** What about the tissue uptake at 3 h (in vivo; salivary glands) of the same compound?
**A.** 0.14 ± 0.03 %ID/g

**Q.** What about the tissue uptake at 1 h (in vivo; small intestine) of the same compound?
**A.** 1.33 ± 0.31 %ID/g

**Q.** And the tissue uptake at 3 h (in vivo; small intestine)?
**A.** 0.2 ± 0.02 %ID/g

**Q.** And the tissue uptake at 1 h (in vivo; spleen)?
**A.** 0.92 ± 0.16 %ID/g

**Q.** What about the tissue uptake at 3 h (in vivo; spleen) of the same compound?
**A.** 0.33 ± 0.03 %ID/g

**Q.** And the tissue uptake at 3 h (in vivo; tumour (PC3-pip xenograft))?
**A.** 5.68 ± 0.62 %ID/g

**Q.** And the tissue to tissue ratio at 3 h (in vivo; tumour (PC3-pip) / bone)?
**A.** 47 ± 13

**Q.** What about the tissue to tissue ratio at 3 h (in vivo; tumour (PC3-pip) / kidneys) of the same compound?
**A.** 0.53 ± 0.07

**Q.** And the tissue to tissue ratio at 3 h (in vivo; tumour (PC3-pip) / liver)?
**A.** 9.9 ± 0.8

**Q.** What about the tissue to tissue ratio at 3 h (in vivo; tumour (PC3-pip) / muscle) of the same compound?
**A.** 116 ± 22

**Q.** What about the tissue to tissue ratio at 3 h (in vivo; tumour (PC3-pip) / pancreas) of the same compound?
**A.** 10 ± 4

**Q.** What about the tissue to tissue ratio at 3 h (in vivo; tumour (PC3-pip) / small intestine) of the same compound?
**A.** 28 ± 4

**Q.** What about the tissue to tissue ratio at 3 h (in vivo; tumour (PC3-pip) / spleen) of the same compound?
**A.** 18 ± 3

**Q.** And the tissue uptake at 1 h (in vivo; tumour (PC3-pip))?
**A.** 10.4 ± 0.97 %ID/g

**Q.** What about the tissue uptake at 3 h (in vivo; tumour (PC3-pip)) of the same compound?
**A.** 5.7 ± 0.6 %ID/g

**Q.** What about the tissue to tissue ratio at 1 h (in vivo; tumour / blood) of the same compound?
**A.** 13 ± 3

**Q.** And the tissue to tissue ratio at 3 h (in vivo; tumour / blood)?
**A.** 35 ± 4

**Q.** What about the tissue to tissue ratio at 1 h (in vivo; tumour / bone) of the same compound?
**A.** 35 ± 8

**Q.** What about the tissue to tissue ratio at 1 h (in vivo; tumour / kidneys) of the same compound?
**A.** 0.3 ± 0.1

**Q.** What about the tissue to tissue ratio at 1 h (in vivo; tumour / liver) of the same compound?
**A.** 11.8 ± 1

**Q.** And the tissue to tissue ratio at 1 h (in vivo; tumour / lungs)?
**A.** 12 ± 3

**Q.** What about the tissue to tissue ratio at 3 h (in vivo; tumour / lungs) of the same compound?
**A.** 29 ± 5

**Q.** And the tissue to tissue ratio at 1 h (in vivo; tumour / muscle)?
**A.** 52 ± 12

**Q.** And the tissue to tissue ratio at 1 h (in vivo; tumour / pancreas)?
**A.** 1.9 ± 0.2

**Q.** And the tissue to tissue ratio at 1 h (in vivo; tumour / salivary glands)?
**A.** 24 ± 3

**Q.** And the tissue to tissue ratio at 3 h (in vivo; tumour / salivary glands)?
**A.** 40 ± 8

**Q.** What about the tissue to tissue ratio at 1 h (in vivo; tumour / small intestine) of the same compound?
**A.** 8 ± 2

**Q.** What about the tissue to tissue ratio at 1 h (in vivo; tumour / spleen) of the same compound?
**A.** 12 ± 3
